In the Human Domainome abundance scans (Beltran et al. 2025):
± gives the uncertainty stated by the source.

B1: 3'-5' exoribonuclease 1, residues 65 to 114; numbered along this chain, Q8IV48 (parent)
chain: VYKEIAITNGCINRMSKEELRAKLSEFKLETRGVKDVLKKRLKNYYKKQK
B2: Protein C-ets-1, residues 55 to 135; numbered along this chain, P14921 (parent)
chain: GFTKEQQRLGIPKDPRQWTETHVRDWVMWAVNEFSLKGVDFQKFCMNGAALCALGKDCFLELAPDFVGDILWEHLEILQKE

Variants of: B1
Assay: abundance fitness (aPCA) (normalised: wild type 0, dead -1); higher = more abundant; growth selection in yeast, the domain comes from the species named
Details: Homo sapiens

Abundance fitness, by site and new letter:
R41: V -1.02 ± 0.052 | W -0.975 ± 0.06 | Y -0.941 ± 0.12
L42: A -0.918 ± 0.053 | C -0.925 ± 0.067 | D -0.961 ± 0.083 | E -0.892 ± 0.057 | F -0.551 ± 0.057 | G -0.871 ± 0.038 | H -0.907 ± 0.075 | K -1.04 ± 0.1 | M -0.611 ± 0.064 | N -0.918 ± 0.1 | P -0.999 ± 0.081 | Q -0.912 ± 0.071 | S -0.511 ± 0.041 | T -1.1 ± 0.087 | V -0.754 ± 0.038 | W -0.888 ± 0.049 | Y -0.969 ± 0.092
K43: A -0.579 ± 0.05 | C -0.823 ± 0.061 | D -0.737 ± 0.099 | E -0.712 ± 0.063 | F -0.755 ± 0.062 | G -0.846 ± 0.043 | H -0.729 ± 0.072 | I -0.448 ± 0.074 | L -0.593 ± 0.042 | M -0.506 ± 0.063 | N -0.39 ± 0.061 | P -0.806 ± 0.063 | Q -0.469 ± 0.068 | R -0.366 ± 0.036 | T -0.55 ± 0.058 | V -0.597 ± 0.047 | Y -0.723 ± 0.083
N44: A -0.021 ± 0.04 | C -0.211 ± 0.066 | E -0.193 ± 0.053 | F -0.306 ± 0.066 | G -0.158 ± 0.04 | H -0.065 ± 0.053 | K 0.05 ± 0.051 | L -0.168 ± 0.036 | M -0.164 ± 0.048 | P -0.767 ± 0.054 | Q -0.063 ± 0.046 | R 0.017 ± 0.038 | S -0.087 ± 0.04 | T -0.086 ± 0.045 | V -0.318 ± 0.039 | W -0.376 ± 0.054 | Y -0.27 ± 0.059
Y45: A -0.383 ± 0.038 | C -0.399 ± 0.06 | D -0.954 ± 0.076 | E -0.63 ± 0.048 | F -0.094 ± 0.076 | G -0.891 ± 0.045 | H -0.048 ± 0.06 | I -0.664 ± 0.08 | K -0.916 ± 0.081 | L -0.637 ± 0.045 | M -0.643 ± 0.059 | N -0.64 ± 0.081 | P -0.995 ± 0.087 | Q -0.876 ± 0.081 | R -0.878 ± 0.051 | S -0.279 ± 0.042 | T -1 ± 0.065 | V -0.8 ± 0.039 | W -0.051 ± 0.048
Y46: C 0.066 ± 0.042 | E -0.703 ± 0.057 | F 0.116 ± 0.06 | G -0.533 ± 0.035 | I 0.114 ± 0.053 | K -0.32 ± 0.067 | L 0.079 ± 0.038 | M 0.111 ± 0.046 | N -0.268 ± 0.069 | P -1 ± 0.07 | Q -0.166 ± 0.066 | S -0.277 ± 0.04 | T -0.125 ± 0.047 | W -0.229 ± 0.049
K47: A -0.288 ± 0.044 | C -0.491 ± 0.05 | D -0.643 ± 0.081 | F -0.572 ± 0.066 | G -0.447 ± 0.037 | H -0.409 ± 0.075 | I -0.415 ± 0.057 | L -0.381 ± 0.042 | M -0.34 ± 0.061 | N -0.155 ± 0.063 | Q -0.325 ± 0.059 | R -0.132 ± 0.035 | T -0.416 ± 0.047 | V -0.422 ± 0.04 | W -0.608 ± 0.043 | Y -0.533 ± 0.068
K48: A -0.187 ± 0.041 | C -0.323 ± 0.049 | D -0.329 ± 0.059 | F -0.51 ± 0.074 | G -0.25 ± 0.035 | H -0.213 ± 0.064 | I -0.611 ± 0.085 | L -0.264 ± 0.036 | M -0.22 ± 0.057 | N -0.164 ± 0.06 | P -0.87 ± 0.061 | Q -0.211 ± 0.059 | R -0.072 ± 0.036 | S -0.158 ± 0.041 | T -0.175 ± 0.055 | V -0.432 ± 0.038 | W -0.393 ± 0.043 | Y -0.279 ± 0.059
Q49: A -0.164 ± 0.04 | C -0.154 ± 0.05 | D -0.353 ± 0.061 | E -0.192 ± 0.055 | F -0.208 ± 0.076 | G -0.306 ± 0.035 | H -0.109 ± 0.032 | I -0.074 ± 0.072 | K -0.083 ± 0.055 | L -0.099 ± 0.039 | M -0.04 ± 0.068 | N -0.099 ± 0.077 | R -0.221 ± 0.032 | S -0.19 ± 0.04 | T -0.064 ± 0.06 | V -0.182 ± 0.039 | W -0.206 ± 0.041 | Y -0.065 ± 0.068
K50: A -0.159 ± 0.12 | D -0.347 ± 0.074 | E -0.13 ± 0.091 | G -0.299 ± 0.12 | H -0.164 ± 0.059 | I -0.157 ± 0.07 | L -0.058 ± 0.09 | M -0.216 ± 0.094 | N -0.06 ± 0.048 | P -0.201 ± 0.32 | Q -0.123 ± 0.073 | R -0.089 ± 0.071 | T -0.179 ± 0.06 | V -0.081 ± 0.23 | W -0.052 ± 0.12 | Y -0.162 ± 0.058

Variants of: B2
Assay: as above
Details: Homo sapiens

Abundance fitness of substitutions, site by site:
Q6: W -0.1 ± 0.044
Q42: Y -0.291 ± 0.073
W26: T -0.954 ± 0.06 | F -0.213 ± 0.053
V27: W -0.625 ± 0.06
L51: A -0.847 ± 0.055
D25: S -0.008 ± 0.028
A63: V 0.007 ± 0.033
L62: H -0.438 ± 0.11
P64: N -0.296 ± 0.14
E20: L -0.209 ± 0.025
V23: G -0.967 ± 0.079
